Data from the supplement of paper PMC12636428.

The sequences below were run on Saccharomyces cerevisiae (assay: transcriptional activation domain activity (GFP:mCherry ratio, weighted mean of sorted bins, harmonized to initial dataset scale) (arbitrary fluorescence ratio units); higher = stronger transcriptional activation). Settings: beta-estradiol 1 µM; induction time 4 h.
Procedure, shortened: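 After a 1:5 dilution into SC with 1 uM beta-estradiol and 4 hours at 30 °C, yeast diploids carrying a GFP reporter and URA3-integrated barcoded tiles were sorted into 8 bins by GFP:mCherry ratio. The tiles were fused to an estradiol-inducible synthetic transcription factor. Barcodes were sequenced, tiles below 50 reads were discarded, and activation activity was taken as the read-weighted mean of bin median fluorescence, averaged across barcodes and linearly mapped onto the initial dataset scale.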

Sequence	transcriptional activation domain activity
NNLLELITDIIIALDMNFVNCMTCVDDDEKALMTLRICEYFIDRLVRTIMVAT	51300
NNLNITGYEWISSELRDDALLSAVTLQGHHLGHTQPQEISLEENSNVVSGEEH	59600
NNNSRSTEDSEDDLAIVGHGTGVERLGGLDALILRQRLLALLIRVAEALPEDF	15200
NNNYNNVSGKNNNNNNITNNSNNNHNNNNNDNNNNNNNNNNNNNNNNNSGNSS	49500
NNPDAKKARACESCRQLKVKCEPDADNPDGPCRRCAKAGRACVVTQPTRKRQK	38000
NNSINATPIVDNSSGSQLPNGFDRGQANNTPFPGYFGGLDLFDYDFLFGNDFA	133000
NNTNNASPATSTVSLQLPNLPDQNSLTPNAQNNTVTLRKGFHVLLVEDDAVSI	23700
NNTTSLGNAYGVCVMFVTFFDSCMVSLAALIVWRLPYYVVFLPWLVFACLDGV	52100
NPERRTGGRGGEGEKGRRREERDAGNRRRGGRNRAQRPKKGRRREGGRRGRGR	48800
NPIIRVRGIGLSLTSICFLHCYWILAQVVYPIGQSLPVILAYDIQYFFMGLWF	56900
NPLIIYSSQYSVWTMSFSLFFCVFWFLMAGCNFVRPSALHRVYSLIWMFILGW	51800
NPLPPKNNGQAAYKETDGIRIKDRRVLVDVERGRTVKGWKPRRFGGGLGGRGY	47500
NPMTFMGSTQRLAAIRNLRSNPKFLFVHLPNILSFLCIIVGVVWLLLLPLNEY	33900
NPPIPVIPADVDRSKIPKCKHIGSRLRHFDDDLGYYLVQVCINLLQRIWKIFY	37200
NPPSWHHTLVFWGGKLFFCFYRIILPAYLIGWARTLLYLTLSDLVSSYWLALT	51300
NPQLFLLGGCLTLVHLLFSSLWLWLVSILFAHDREYPSFVLLSYFMIFYFWTS	54000
NPSSAPAQTATTAASGTPSLFGSKPAQATGAPSSLFGGQPAAASTGASTQATP	24200
NPTDTILILATSLPTVSTFFINYLLLQGLIGSAIELTQAYRLLWNIVIVRWFA	54500
NQAQPSTSGGFGQPSAFGSATPSSSAFGGGAASTPTQPSAFGASTTPAAAPTA	8250
NQFSKPQVWSVGVFWWSIWLSCVWLGWWLCRLASFLAPRVLKFTIAIWMLVIY	40800
NQGSGSKTGGEVDLVGEREEVMRSVHDSRAQLSEDYEYERRNISLAVPLGRGQ	41000

Sequence	transcriptional activation domain activity
NQLAEAHALALLHLEQRLNIAIELPIQKFILSHLPWLMPVLAKIYLSHIIVGV	57100
NQLHRPPPEILKLFEASVRFEMQIRRLIAKDWLCVATWWLLKARATLANCNRH	69100
NQQPVFRAKYLLRQLFHLCNRTEHELRTLWTPAMVVLVARRLFDSIHPALGSL	58300
NQRLREDGVDEIELDIISKLHPSRKDTAPRDIKPIPASKRGEISSKFEKLHEQ	< 6570
NRKTIGKQDPYCAARLGKEAKKTDTDRRGGQTPRWDQELRYTVHDSPDYYQLK	33300
NRKTIGKQDPYCAARLGKEAKKTETDRRGGQTPRWDQELRFTVHDSADYYQLK	44000
NRKTIGKQDPYCAARLGKEAKKTETDRRGGQTPRWDQELRYTVHDSPDYYQLK	31200
NRKTIGKQDPYCAARLGKEAKKTETDRRGGQTPRWDQEMRFTVHDSPDYYQLK	21000
NRNQDAAEPSAAASSSAAAPAETPARGGNRQNDGANNQGGNNQNNGGNNRQQE	41100
NRPGQKSIQVLNQYIGIDIGKCYLCGRLCVNLSYVCWSSPQLLYNCRMVMITR	41000
NRRDASPEPHHKGKGKGKKNNRREAEADAEIEVREPHHKGKGKGKKNNAREAE	21700
NRSDEPELDVKELNRHVNADNLSDLQLDDSQKMGYVYKCLGAGIHLLRLSLRL	39000
NRTLSTKDLIVLRLCSSFFAYFIISLFYCLMNLAFQIVVDRKFGQAGFIVFWM	62100
NRVIGVQGKNQEGACYEKLSPSSTSVSVGMDFCSLENFVTAESLPDLLNLFWE	111000
NRWMMATFMSGCVGALVYFFYKLVKVVMLKSTPSFVSIWKSLTTFSIIAIFLL	37200
NSFPKECEVVHEELRKLTHLVSALPREGLLYHGRLILRYLETVVCACLIMFDG	71100
NSGDEGDAGAAEVEAPKSKKKRGRAAKEEDDDEETPAPVPKKARGRAKKATKE	23700
NSIIPFFRFLGCIVLSGAFYFYIFFYAFLLCLFLIYFFFHGSKLGFFHFIFFP	40600
NSLKGMAVDFRWWLLAHKKRPLREVNLILQLDSLTEVIKLACVSPKLSFLCIM	71000
NSLRNLFDLVGCSSLCSSSQKRGFVGRLVVDFASCAWPPVIVILLIWISLFWW	39200
